{
  "source": "paper PMC11344848",
  "about": "“Proximity-driven site-specific cyclization of phage-displayed peptides” (Nature Communications, 2024)",
  "binders": {"B1": {"name": "synthetic peptide Str1-CCA (peptide)", "chain": "CPINIFHPPPDC", "modifications": "linker 1-12 via CCA"}},
  "biological_target": "T1, streptavidin (UniProt P22629 25-183)",
  "T1 construct": "streptavidin; Plate-coated in the ELISA; covalently immobilised by amine coupling to a CM5 chip in SPR; Commercial streptavidin is often a truncated core form; source: bought: Pierce streptavidin-coated 96 well plate (Thermo Fisher Scientific) for the phage ELISA",
  "T1 sequence (P22629 25-183)": "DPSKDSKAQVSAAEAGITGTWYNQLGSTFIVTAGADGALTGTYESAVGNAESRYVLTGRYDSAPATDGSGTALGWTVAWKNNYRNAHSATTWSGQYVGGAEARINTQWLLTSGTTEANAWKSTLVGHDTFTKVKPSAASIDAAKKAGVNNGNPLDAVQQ",
  "experiment": "SPR; Biacore 8K, 25 °C; streptavidin amine-coupled to a CM5 chip; peptides 4.1 – 9000 nM in HBS-EP+ pH 7.4 at 30 µL/min, 180 s association, 600 s dissociation",
  "conditions": "both partners purified",
  "note": "Positions of bridges follow the written chain, without caps; N, C: chain ends. No end group written: not given here. CCA = cyclopropenone-chloroacetamide linker between the two cysteines",
  "data": [
    {"binder": "B1", "values": [
      {"measurement": "Kd", "result": 340, "unit": "nM"}
    ]}
  ]
}
